Experimental data: patent publication US10913781B2, “Pepducin design and use” (Tufts Medical Center, Inc., priority 2011, dated 2021)
Where two headings read alike, the source gives them in different places. One block for each molecule: values may come before it. Peptide text beside a SMILES is read from it. * marks the point of attachment. Palmitoyl = CCCCCCCCCCCCCCCC(=O)*

How the values were obtained:
[1] = biological target: T1, PAR2 (Homo sapiens, UniProt P55085); experiment: Calcium flux screen for PAR2 pepducin agonist and antagonist activity in SW620 cells; type: cell-based; set-up: SW620 colon adenocarcinoma cells that endogenously express PAR2; endogenous in cells; host or cells: SW620 (in A7 the SW620 cells were additionally stably transfected with PAR1); details: for Agonist activity (calcium flux): 3-4 μM and 14-15 μM pepducin; for Antagonist activity (inhibition of SLIGRL calcium flux, area under the curve): 6 μM pepducin, 1 min pretreatment, against 100 μM SLIGRL
Protocol: (§2) (A) Agonist and antagonist activity of third intracellular (i3) loop PAR2 pepducins (structure shown on top) using calcium flux assays with SW620 colon adenocarcinoma cells that endogenously express PAR2. Each column of three calcium flux traces corresponds to the i3 pepducin sequence shown above. The top row is the agonist activity of 3-4 μM pepducin and the middle row is the agonist activity of 14-15 μM pepducin. […] Final concentration of DMSO vehicle was 0.2%. […] (C) Agonist activity for each pepducin from (A) is reported as initial velocity of calcium flux at 4 μM pepducin (†), or at 14-15 μM pepducin (‡).

[2] = biological target: T1, PAR2; experiment: Agonist | (%)^†; set-up: SW620 colon adenocarcinoma cells that endogenously express PAR2; endogenous in cells; host or cells: SW620 (in A7 the SW620 cells were additionally stably transfected with PAR1); details: 4 µM
Protocol: as §2

[3] = biological target: T1, PAR2; experiment: Antagonist | (% inhibition); set-up: SW620 colon adenocarcinoma cells that endogenously express PAR2; endogenous in cells; host or cells: SW620 (in A7 the SW620 cells were additionally stably transfected with PAR1); details: 6 µM
Protocol: as §2

[4] = biological target: T1, PAR2; experiment: Agonist | (%)^‡; set-up: SW620 colon adenocarcinoma cells that endogenously express PAR2; endogenous in cells; host or cells: SW620 (in A7 the SW620 cells were additionally stably transfected with PAR1)
[5] = test system: A549, HOP62, and HOP92 lung carcinoma cell lines; experiment: Cytotoxicity/cell viability of lung carcinoma cells (MIT assay); type: cell-based, human; details: 3-day period
[6] = test system: A549 xenografts; type: in vivo, mouse
Protocol: (§1) FIG. 13 illustrates that monotherapy with PAR1-i3 pepducins inhibits tumor progression of A549 xenografts. (A) and (B): A549 mice treated with vehicle, P1pal-7, P1pal-i1-11, P1pal-10S, X1/2-i1, X1/2-i3, or Avastin. Each time point represents the mean±SE. (C): Final tumor volume at the completion of the experiment was calculated as a percentage of untreated vehicle control. (D): Serum-starved A549 adenocarcinoma cells were pretreated with P1pal-7, P1pal-10S, P1pal-i1-11, vehicle, or PD98059 and stimulated with thrombin. VEGF production was assessed by enzyme-linked immunosorbent assay. Data are expressed as mean±SD (*P<0.05, **P<0.01).
PAR1 expression level is correlated with reduced survival of patients with NSCLC. To define the relative importance of PAR1 in lung tumor progression, in vivo mouse models were used. […] An A549 lung adenocarcinoma xenograft model in nude mice was used to evaluate monotherapy with P1pal-7, P1pal-10S, P1pal-i1-11, or the VEGF antagonist Avastin.

[7] = test system: VEGF-A production; experiment: Thrombin-dependent VEGF-A production in A549 cells (ELISA); type: cell-based, human; details: A549, 18 hours thrombin treatment
Protocol: as §1
Because the i3-based P1pal-7 pepducin had similar efficacy as Avastin in suppressing lung tumor growth of A549 xenografts, VEGF-A production was measured in the A549 tumor cells after 18 hours thrombin treatment. […] Unlike in ovarian cancer, no increase was found in PAR1-mediated IL-8 production in A549 cells, consistent with the observed lack of efficacy of CXCR1/2 pepducins in the A549 xenograft models. These xenograft data provide support for the role of a novel PAR1-ERK1/2-VEGF paracrine pathway that is an effective therapeutic target in the A549 adenocarcinoma lung cancer model.

[8] = Pharmacokinetics of PAR1 pepducins in CF-1 mice, plasma LC/MS/MS; type: in vivo, mouse; details: 10 mg/kg s.c.
Protocol: FIG. 14 illustrates pharmacokinetics of PAR1 pepducins. (A): CF-1 mice were injected subcutaneously with P1pal-7 (3 mg/kg, open circles), P1pal-7 (10 mg/kg, closed circles), P1pal-10S (10 mg/kg, gray circles), or P1pal-i1-11 (10 mg/kg, open squares) in 20% dimethyl sulfoxide and blood was collected at indicated time points (n=3). Pepducin levels in plasma were quantified with LC/MS/MS. (B): Daily (D1 to D6) plasma levels of P1pal-7 after subcutaneous injection of 10 mg/kg P1pal-7 were measured at 1 hour (open circles) and 24 hours (open squares).
Pharmacokinetics of plasma levels of P1pal-7, P1pal-10S, and P1pal-i1-11 at 30 minutes, and at 1, 2, 4, 6, 8, and 16 hours was measured by LC/MS/MS to determine steady-state pepducin drug levels and the rate of elimination from mice. Subcutaneous injections of P1pal-7 (3 mg/kg or 10 mg/kg) into wild-type CF-1 mice (25 to 30 g) was followed by blood collection at various time points from the vena cava. […] Residual P1pal-7 levels were 10 nmol/L at the 16-hour time point. After the 4-hour plateau, the elimination rate was linear from 4 to 16 hours. The peak plasma level of 3 mg/kg P1pal-7 reached 0.6 μmol/L at 2 hours and elimination was linear between 2 hours and 16 hours. P1pal-10S (10 mg/kg) gave similar peak plasma level of 1.0 μmol/L as P1pal-7 (10 mg/kg) at 1 hour.
Lastly, the peak plasma level of P1pal-7 (10 mg/kg) was measured before and 1 hour after once-daily subcutaneous injection over 6 days to determine whether the peak plasma levels were consistent on daily administration.

[9] = biological target: T2, PAR1 (Homo sapiens, UniProt P25116); experiment: ERK1/2 phosphorylation in A549 cells (thrombin or […]), Western blot; type: cell-based; set-up: endogenous in cells; host or cells: A549, HOP62, H1299, H522, H226, HOP92 lung carcinoma lines; details: A549 cells; pepducin 0.1-3 μM
T2 sequence (P25116 22-425): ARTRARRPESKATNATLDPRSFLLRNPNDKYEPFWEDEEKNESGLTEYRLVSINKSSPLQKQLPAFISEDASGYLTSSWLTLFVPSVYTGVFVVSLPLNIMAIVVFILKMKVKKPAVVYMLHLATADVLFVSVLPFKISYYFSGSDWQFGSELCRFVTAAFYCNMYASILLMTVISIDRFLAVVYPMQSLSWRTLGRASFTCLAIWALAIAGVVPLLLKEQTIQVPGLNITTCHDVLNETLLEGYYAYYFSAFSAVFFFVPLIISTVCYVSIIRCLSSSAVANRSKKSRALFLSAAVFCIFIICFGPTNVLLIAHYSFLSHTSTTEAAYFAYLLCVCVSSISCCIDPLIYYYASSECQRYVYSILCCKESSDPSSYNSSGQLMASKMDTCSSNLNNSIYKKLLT
Protocol: FIG. 9 illustrates that differential inhibition of PAR1-ERK activation by i3- and i1-derived PAR1 pepducins. (A-C): Western blots of lysates from A549 cells untreated, or treated with thrombin, SLIGKV (SEQ ID NO:29), or AYPGKF (SEQ ID NO:5). Indicated samples were pretreated with various concentrations (0.1 to 3 μmol/L) of P1pal-7, P1pal-10S, or P1pal-i1-11 before stimulation and immunoblotted with anti-phospho-ERK. (D-F): Quantification of the Western blots in (A-C) were conducted by densitometry and results are expressed relative to maximum (fold max) phosphorylation of pERK.
(B): A549 cells stimulated with 10 μM […] over 2 h. A549 cells pretreated with 0.1 μM P1pal-7 and stimulated with 10 μM […] (SEQ ID NO:30) for 5 min. Total ERK was used as a loading control.
Last, there has been a great deal of interest in understanding the mechanism of PAR1-mediated activation of MAP kinase cascade and PAR1-dependent cellular growth and differentiation, proliferation and gene transcription. […] The effects of i1 versus i3 PAR1 pepducins on ERK1/2 activation were examined in the A549 lung adenocarcinoma cell line. […] Inhibition experiments with a range of pepducin concentrations (0.1-3 μM) were conducted. […] The […] (SEQ ID NO:30) peptide gave a rapid and transient ERK1/2 phosphorylation signal that peaked at 5-15 min after stimulation. […] To determine the specificity of the PAR1 pepducin inhibitors, their effects on the closely related PAR2 and PAR4 receptors were also tested.

Agonist activity (calcium flux) [1]: restored agonist activity
Molecule: P2pal-18SF: palmitoylated PAR2 pepducin, R284 to S and K287 to F; SEQ ID NO:21 (Palmitoyl-RSSAMDENSEKKRKSAIF-NH2) [listing 1 of 2 here]

Agonist | (%)^† [2]: 3%
Antagonist | (% inhibition) [3]: 0 % inhibition
Agonist | (%)^‡ [4]: 8%
Molecule: P2pal-14GF: N-terminally truncated palmitoylated PAR2 pepducin, M274 to G and K287 to F; SEQ ID NO:23 (Palmitoyl-GDENSEKKRKRAIF-NH2) [listing 1 of 2 here]

Clearance / plasma half-life in words [8]: rapid clearance after 1 hour
Tmax ([8]; CF-1, mouse, plasma, sc, read-out: Time of peak plasma level): 1 h
Cmax ([8]; mouse, plasma, sc, CF-1 mice, read-out: Peak plasma level): 1000 nM
Effect on thrombin-induced ERK1/2 phosphorylation [9]: complete inhibition
Molecule: CCCCCCCCCCCCCCCC(=O)N[C@@H](CC(N)=O)C(=O)N[C@@H](CCCNC(=N)N)C(=O)N[C@@H](CO)C(=O)N[C@@H](CCCCN)C(=O)N[C@@H](CCCCN)C(=O)N[C@@H](CO)C(=O)N[C@@H](CO)C(=O)N[C@@H](C)C(=O)N[C@@H](CC(C)C)C(=O)N[C@@H](Cc1ccccc1)C(N)=O [P1pal-10S] (Palmitoyl-NRSKKSSALF-NH2)
Sensitivity of A549 cells (cytotoxicity) [5]: most sensitive
Inhibition of tumor progression/growth (final tumor volume vs vehicle) ([6]; mouse, in vivo): 40%
Effect on thrombin-dependent VEGF-A production [7]: partially blocked

Antagonist activity (inhibition of SLIGRL calcium flux, area under the curve) [1]: devoid of antagonist activity
Molecule: P2pal-18F: palmitoylated PAR2 pepducin, K287 to F, first three residues (R267, M268, L269) deleted; SEQ ID NO:19 (Palmitoyl-RSSAMDENSEKKRKRAIF-NH2) [listing 1 of 2 here]
Agonist activity (calcium flux) [1]: slight decrease in agonist activity at lower concentration

Agonist | (%)^† [2]: 5%
Antagonist | (% inhibition) [3]: 0 % inhibition
Agonist | (%)^‡ [4]: 35%
Molecule: P2pal-18F: palmitoylated PAR2 pepducin, K287 to F, first three residues (R267, M268, L269) deleted; SEQ ID NO:19 (Palmitoyl-RSSAMDENSEKKRKRAIF-NH2) [listing 2 of 2 here]

Agonist | (%)^‡ [4]: 16%
Molecule: P2pal-18Q: palmitoylated PAR2 pepducin, R284 replaced by glutamine; SEQ ID NO:22 (Palmitoyl-RSSAMDENSEKKRKQAIK-NH2) [listing 1 of 2 here]

Agonist activity (calcium flux) [1]: no significant agonist
Molecule: P2pal-14GF: N-terminally truncated palmitoylated PAR2 pepducin, M274 to G and K287 to F; SEQ ID NO:23 (Palmitoyl-GDENSEKKRKRAIF-NH2) [listing 2 of 2 here]
Antagonist activity (inhibition of SLIGRL calcium flux, area under the curve) [1]: no significant agonist or any detectable antagonist activity

Agonist activity (calcium flux) [1]: nearly no agonist activity
Molecule: P2pal-18Q: palmitoylated PAR2 pepducin, R284 replaced by glutamine; SEQ ID NO:22 (Palmitoyl-RSSAMDENSEKKRKQAIK-NH2) [listing 2 of 2 here]

Agonist | (%)^† [2]: 8%
Antagonist | (% inhibition) [3]: 57 % inhibition
Agonist | (%)^‡ [4]: 30%
Molecule: P2pal-18SF: palmitoylated PAR2 pepducin, R284 to S and K287 to F; SEQ ID NO:21 (Palmitoyl-RSSAMDENSEKKRKSAIF-NH2) [listing 2 of 2 here]

Molecule: Avastin: VEGF antibody; VEGF antagonist [reference compound]
Inhibition of tumor progression/growth (final tumor volume vs vehicle) ([6]; monotherapy, nude mice): 75%

Molecule: COc1cccc(-c2cc(=O)c3ccccc3o2)c1N [PD98059, reference compound]
Effect on thrombin-dependent VEGF-A production [7]: could suppress
